In patent publication US11071755 (CRISPR THERAPEUTICS, dated 2021):

T1: recombinant biotinylated human BCMA (human, UniProt Q02223 1-54, biotinylated)
T1 construct: Soluble labelled reagent, detected with streptavidin-APC; also called recombinant BCMA; biotinylated BCMA
T1 sequence (looked up): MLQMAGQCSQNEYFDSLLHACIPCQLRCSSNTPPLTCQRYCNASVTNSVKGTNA


Tests used:
[1] = biological target: T1, recombinant biotinylated human BCMA; test: flow cytometry, biotinylated BCMA on CAR-T cells detected with streptavidin-APC
Description: Allogeneic TRAC−/B2M−/anti-BCMA CAR T+ cells were generated, as described above, having either a CD28 co-stimulatory domain (encoded by CTX-160 or CTX-166) or a 4-1BB co-stimulatory domain (encoded by CTX160b or CTX166b). Anti-BCMA CAR expression was measured by determining the percent of cells that bound biotinylated BCMA subsequently detected by FACS using streptavidin-APC (FIG. 67). Greater than 60% of the cells expressed the CAR at the cell surface.

[2] = biological target: T1, recombinant biotinylated human BCMA; test: flow cytometry, recombinant BCMA on CAR-T cells
Description: Allogeneic anti-BCMA CAR T cells were generated as described above. Anti-BCMA CAR expression was measured by determining the percent of cells that bound biotinylated BCMA subsequently detected by FACS using streptavidin-APC (FIG. 47).
Figure 48: FIG. 48 is a graph showing anti-BCMA CAR expression. Allogeneic CAR T cells were generated as previously described. Anti-BCMA CAR expression was measured by determining the percent of cells that bound biotinylated recombinant human BCMA subsequently detected by FACS using streptavidin-APC. […] CAR constructs were evaluated for their ability to kill RPMI-8226 cells. […] Following enrichment/purification, greater than 99.5% of the gene edited cells are TCR negative.

| percent of cells that bound biotinylated BCMA [1] [%] | binding result [2] | Binder |
| --- | --- | --- |
| > 60 | – | anti-BCMA CAR of CTX-166 (CD28 co-stimulatory domain) (other, CAR on edited primary human T cells; also called anti-BCMA (CD28) CAR) QVQLVQSGAELKKPGASVKVSCKASGNTLTNYVIHWVRQAPGQRLEWMGYILPYNDLTKYSQKFQGRVTITRDKSASTAYMELSSLRSEDTAVYYCTRWDWDGFFDPWGQGTTVTVSSGGGGSGGGGSGGGGSEIVMTQSPATLSVSPGERASISCRASQSLVHSNGNTHLHWYQQRPGQAPRLLIYSVSNRFSEVPARFSGSGSGTDFTLTISSVESEDFAVYYCSQTSHIPYTFGGGTKLEIKSAAAFVPVFLPAKPTTTPAPRPPTPAPTIASQPLSLRPEACRPAAGGAVHTRGLDFACDIYIWAPLAGTCGVLLLSLVITLYCNHRNRSKRSRLLHSDYMNMTPRRPGPTRKHYQPYAPPRDFAAYRSRVKFSRSADAPAYQQGQNQLYNELNLGRREEYDVLDKRRGRDPEMGGKPRRKNPQEGLYNELQKDKMAEAYSEIGMKGERRRGKGHDGLYQGLSTATKDTYDALHMQALPPR |
| – | binds | anti-BCMA CAR of CTX-154 (BCMA-2: CD8[signal peptide]-VL-linker-VH-CD8[tm]-CD28[co-stimulatory domain]-CD3z) (other, CAR on edited primary human T cells, co-expressed with GFP from a bicistronic 2A mRNA; also called BCMA-2 CAR) DIVMTQSQRFMTTSVGDRVSVTCKASQSVDSNVAWYQQKPRQSPKALIFSASLRFSGVPARFTGSGSGTDFTLTISNLQSEDLAEYFCQQYNNYPLTFGAGTKLELKGGGGSGGGGSGGGGSGQVQLQQSGGGLVQPGGSLKLSCAASGIDFSRYWMSWVRRAPGKGLEWIGEINPDSSTINYAPSLKDKFIISRDNAKNTLYLQMSKVRSEDTALYYCASLYYDYGDAMDYWGQGTSVTVSSSAAAFVPVFLPAKPTTTPAPRPPTPAPTIASQPLSLRPEACRPAAGGAVHTRGLDFACDIYIWAPLAGTCGVLLLSLVITLYCNHRNRSKRSRLLHSDYMNMTPRRPGPTRKHYQPYAPPRDFAAYRSRVKFSRSADAPAYQQGQNQLYNELNLGRREEYDVLDKRRGRDPEMGGKPRRKNPQEGLYNELQKDKMAEAYSEIGMKGERRRGKGHDGLYQGLSTATKDTYDALHMQALPPR |
| – | binds | anti-BCMA CAR of CTX-152 (BCMA-1: CD8[signal peptide]-VH-linker-VL-CD8[tm]-CD28[co-stimulatory domain]-CD3z) (other, CAR on edited primary human T cells, co-expressed with GFP from a bicistronic 2A mRNA; also called BCMA-1 CAR) QVQLQQSGGGLVQPGGSLKLSCAASGIDFSRYWMSWVRRAPGKGLEWIGEINPDSSTINYAPSLKDKFIISRDNAKNTLYLQMSKVRSEDTALYYCASLYYDYGDAMDYWGQGTSVTVSSGGGGSGGGGSGGGGSGDIVMTQSQRFMTTSVGDRVSVTCKASQSVDSNVAWYQQKPRQSPKALIFSASLRFSGVPARFTGSGSGTDFTLTISNLQSEDLAEYFCQQYNNYPLTFGAGTKLELKSAAAFVPVFLPAKPTTTPAPRPPTPAPTIASQPLSLRPEACRPAAGGAVHTRGLDFACDIYIWAPLAGTCGVLLLSLVITLYCNHRNRSKRSRLLHSDYMNMTPRRPGPTRKHYQPYAPPRDFAAYRSRVKFSRSADAPAYQQGQNQLYNELNLGRREEYDVLDKRRGRDPEMGGKPRRKNPQEGLYNELQKDKMAEAYSEIGMKGERRRGKGHDGLYQGLSTATKDTYDALHMQALPPR |
| > 60 | – | anti-BCMA CAR of CTX-160 (CD28 co-stimulatory domain) (other, CAR on edited primary human T cells; also called anti-BCMA (CD28) CAR) EVQLVESGGGLVQPGGSLKLSCAASGIDFSRYWMSWVRQAPGKGLEWIGEINPDSSTINYADSVKGRFTISRDNAKNTLYLQMNLSRAEDTALYYCASLYYDYGDAMDYWGQGTLVTVSSGGGGSGGGGSGGGGSDIQMTQSPSSLSASVGDRVTITCRASQSVDSNVAWYQQKPEKAPKSLIFSASLRFSGVPSRFSGSGSGTDFTLTISSLQPEDFATYYCQQYNSYPLTFGAGTKLEIKSAAAFVPVFLPAKPTTTPAPRPPTPAPTIASQPLSLRPEACRPAAGGAVHTRGLDFACDIYIWAPLAGTCGVLLLSLVITLYCNHRNRSKRSRLLHSDYMNMTPRRPGPTRKHYQPYAPPRDFAAYRSRVKFSRSADAPAYQQGQNQLYNELNLGRREEYDVLDKRRGRDPEMGGKPRRKNPQEGLYNELQKDKMAEAYSEIGMKGERRRGKGHDGLYQGLSTATKDTYDALHMQALPPR |
| > 60 | – | anti-BCMA CAR of CTX-160b (4-1BB co-stimulatory domain) (other, CAR on edited primary human T cells; also called anti-BCMA (4-1BB) CAR) EVQLVESGGGLVQPGGSLKLSCAASGIDFSRYWMSWVRQAPGKGLEWIGEINPDSSTINYADSVKGRFTISRDNAKNTLYLQMNLSRAEDTALYYCASLYYDYGDAMDYWGQGTLVTVSSGGGGSGGGGSGGGGSDIQMTQSPSSLSASVGDRVTITCRASQSVDSNVAWYQQKPEKAPKSLIFSASLRFSGVPSRFSGSGSGTDFTLTISSLQPEDFATYYCQQYNSYPLTFGAGTKLEIKSAAAFVPVFLPAKPTTTPAPRPPTPAPTIASQPLSLRPEACRPAAGGAVHTRGLDFACDIYIWAPLAGTCGVLLLSLVITLYCNHRNRKRGRKKLLYIFKQPFMRPVQTTQEEDGCSCRFPEEEEGGCELRVKFSRSADAPAYQQGQNQLYNELNLGRREEYDVLDKRRGRDPEMGGKPRRKNPQEGLYNELQKDKMAEAYSEIGMKGERRRGKGHDGLYQGLSTATKDTYDALHMQALPPR |
| > 60 | – | anti-BCMA CAR of CTX-166b (4-1BB co-stimulatory domain) (other, CAR on edited primary human T cells; also called anti-BCMA (4-1BB) CAR) QVQLVQSGAELKKPGASVKVSCKASGNTLTNYVIHWVRQAPGQRLEWMGYILPYNDLTKYSQKFQGRVTITRDKSASTAYMELSSLRSEDTAVYYCTRWDWDGFFDPWGQGTTVTVSSGGGGSGGGGSGGGGSEIVMTQSPATLSVSPGERASISCRASQSLVHSNGNTHLHWYQQRPGQAPRLLIYSVSNRFSEVPARFSGSGSGTDFTLTISSVESEDFAVYYCSQTSHIPYTFGGGTKLEIKSAAAFVPVFLPAKPTTTPAPRPPTPAPTIASQPLSLRPEACRPAAGGAVHTRGLDFACDIYIWAPLAGTCGVLLLSLVITLYCNHRNRKRGRKKLLYIFKQPFMRPVQTTQEEDGCSCRFPEEEEGGCELRVKFSRSADAPAYQQGQNQLYNELNLGRREEYDVLDKRRGRDPEMGGKPRRKNPQEGLYNELQKDKMAEAYSEIGMKGERRRGKGHDGLYQGLSTATKDTYDALHMQALPPR |
